The target of this experiment is T1, TRPV2, Q9WUD2.
T1 chain: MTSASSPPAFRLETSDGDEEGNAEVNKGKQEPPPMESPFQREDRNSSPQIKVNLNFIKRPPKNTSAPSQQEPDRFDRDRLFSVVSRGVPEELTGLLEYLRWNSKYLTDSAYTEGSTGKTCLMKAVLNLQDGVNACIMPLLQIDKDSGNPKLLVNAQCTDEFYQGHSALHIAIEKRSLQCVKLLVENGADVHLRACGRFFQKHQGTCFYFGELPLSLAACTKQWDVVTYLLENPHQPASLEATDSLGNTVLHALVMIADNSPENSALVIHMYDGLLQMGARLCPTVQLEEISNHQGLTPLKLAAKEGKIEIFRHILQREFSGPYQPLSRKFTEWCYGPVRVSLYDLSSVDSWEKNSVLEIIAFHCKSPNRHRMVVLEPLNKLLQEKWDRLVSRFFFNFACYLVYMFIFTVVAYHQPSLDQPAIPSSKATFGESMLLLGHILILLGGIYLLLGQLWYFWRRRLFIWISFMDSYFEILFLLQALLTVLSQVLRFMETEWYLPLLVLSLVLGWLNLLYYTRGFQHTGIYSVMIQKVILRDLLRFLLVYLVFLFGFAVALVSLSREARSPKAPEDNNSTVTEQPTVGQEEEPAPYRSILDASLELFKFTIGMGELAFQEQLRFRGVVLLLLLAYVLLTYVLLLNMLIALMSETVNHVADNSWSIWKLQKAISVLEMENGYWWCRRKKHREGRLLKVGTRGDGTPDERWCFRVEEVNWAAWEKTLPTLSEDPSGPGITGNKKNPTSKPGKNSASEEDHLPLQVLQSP
Kind of experiment: SEC + native gel or EMSA + other: negative-stain EM. The following applies: remark: other sources report otherwise.

B1: TRPV2, Q9WUD2 1-761 (natural protein)
chain: T1 chain
Consider B1, for which the stoichiometry N was 4.

These data come from PMC4198461.
